Key:
myosin = molecular target: T1, myosin (Gallus gallus, UniProt P10587); assay: Myosin binding assay (pelleting with myosin); parameters: species or system chicken; settings: myosin 1 μM, 15 min 0° C.
T1 construct: from tissue; host or cells: chicken gizzard
Method: The PP1 catalytic subunit (PP1c), PP1M, or PP1M lacking the M21 subunit, PP1M(ΔM21), each at 30 nM, were incubated for 15 min at 0° C. with 1 μM myosin and centrifuged (see Methods of Example 3). […] The results shown are the average (±S.E.M.) for three separate experiments each assayed in duplicate.
(A); PP1M, M110-(M1-S477) and GST-M110-(M377-K976), each at 30 nM were incubated for 15 min at 0° C. with 1 μM myosin and centrifuged. The supernatants (S), resuspended pellets (P) and the suspension before centrifugation (T, total) were electrophoresed on 12% SDS/polyacrylamide gels, transferred to nitrocellulose and immunoblotted with antibodies raised against the PP1M holoenzyme. No protein was pelleted in the absence of myosin (not shown). The positions of the marker proteins myosin heavy chain (200 kDa), glycogen phosphorylase (97 kDa), bovine serum albumin (66 kDa), ovalbumin (43 kDa), carbonic anhydrase (29 kDa) and soybean trypsin inhibitor (20 kDa) are indicated. (B) The experiments were carried out as in (A), except that the M110 fragments and M21 subunit were used at 100 nM, the 8.5 kDa M110-(K933-I1004) fragment was electrophoresed on a 16.5% polyacrylamide gel and immunoblotting was carried out with affinity purified antibodies (see Methods). A small amount of M110-(R714-I1004) pelleted in the absence of myosin. […] No other protein was pelleted in the absence of myosin.
(A); Myosin (1 μM) was mixed with 50 μM, 20 μM or 10 μM M21 subunit to give the molar ratios M21:myosin dimer indicated. After 15 min at 0° C., the solutions were centrifuged and the supernatants (S), resuspended pellets (P) and the suspension before centrifugation (T, total) were electrophoresed on 12% SDS/polyacrylamide gels and stained with Coomassie blue. The positions of the myosin heavy chain (MHC) and the M21 subunit are indicated. The myosin light chains migrate faster than the M21 subunit and are not visible at these loadings.
Myosin binding assays. Myosin (0.5 mg/ml, 1 μM in terms of myosin heavy chains) in 10 mM Hepes pH 7.5, 50 mM KCl, 5 mM MgCl2, 0.1% (by vol) 2-mercaptoethanol, was mixed with PP1M, M21 subunit, or fragments of the M110 and M21 subunits, at the concentrations indicated in figure legends. After incubation for 15 min at 0° C., the solutions were centrifuged for 2 min at 13,000×g, the supernatants removed, and the pellets washed twice in 10 mM Hepes pH 7.5, 50 mM KCl, 5 mM MgCl2, 0.1% (by vol) 2-mercaptoethanol before resuspension in 50 mM Tris-HCl pH 7.5, 0.1 mM EGTA, 0.03% (by mass) Brij 35, 0.6 M NaCl, 0.1% (by vol) 2-mercaptoethanol. Aliquots of the supernatant, the resuspended pellet and the suspension before centrifugation were either assayed for myosin P-light chain phosphatase activity or denatured in SDS and analysed by SDS/polyacrylamide gel electrophoresis.

M21 subunit = assay: Far Western blotting: interaction with the M21 subunit; type: binding, chicken; settings: probe 0.2 μg/ml
Method: A) PP1M 5 μg (track 1), 10 μg bacterial extract containing M110-(R714-I1004) (track 2), MBP-M110-(R714-I004) 1 μg (track 3), MBP-M110-(R714-L934) 1 μg (track 4), MBP-M110-(K933-I1004) 1 μg (track 5), MBP 1 μg (track 6), M110-(M1-E309) 2 μg (lane 7) and M110-(M1-S477) 2 μg (track 8) were run on a 12% SDS/polyacrylamide gel and stained with Coomassie Blue. B) same as A) except that 10-fold less protein was electrophoresed and after transfer to nitrocellulose the proteins were probed with digoxigenin-labelled M21 subunit (0.2 μg/ml). C) same as B) except that, after electrophoresis, the proteins were transferred to nitrocellulose and probed with digoxigenin-labelled M21-(M1-L146) (0.2 μg/ml).
A) GST-M21 5 μg (track 1), M21 5 μg (track 2), M21-(M1-L146) 5 μg (track 3), M21-(M1-E110) 20 μg (track 4) and M21-(E110-K186) 5 μg (track 5) were run on 16.5% polyacrylamide gels and stained with Coomassie Blue. The marker proteins ovalbumin (43 kDa) and carbonic anhydrase (29 kDa) are indicated. B) GST-M21 0.5 μg (track 1), M21 0.5 μg (track 2), M21-M1-L146) 0.5 μg (track 3), M21-(M1-E110) 5 μg (track 4) and M21-(E110-K186) 5 μg (track 5) were electrophoresed as in A) and after transfer to nitrocellulose the blots were probed with digoxigenin-labelled MBP-M110-(K933-I1004) (0.2 μg/Ml). C) same as B) except that, after electrophoresis, the proteins were transferred to nitrocellulose and probed with digoxigenin-labelled M21 subunit (0.2 μg/ml).
PP1M (0.5 μAg) was electrophoresed on a 12% SDS/polyacrylamide gel, transferred to nitrocellulose and probed with digoxigenin-labelled M21 subunit (0.2 μg/ml) (track 1) or digoxigenin-labelled M21-(M1-L146) (0.2 μg/ml) (track 2). The positions of the M110 subunit, the M21 subunit and PP1c are marked.
Proteins were labelled with digoxigenin and Far Western analyses carried out as described, except that the digoxigenin-labelled probe was used at a concentration of 0.2 μg/ml instead of 2 μg/ml. SDS/polyacrylamide gel electrophoresis was carried out on 7.5-15% gels according to Laemmli and on 16.5% gels according to Schagger and von Jagow. Protein was estimated according to Bradford.

T1 sequence (P10587 whole entry): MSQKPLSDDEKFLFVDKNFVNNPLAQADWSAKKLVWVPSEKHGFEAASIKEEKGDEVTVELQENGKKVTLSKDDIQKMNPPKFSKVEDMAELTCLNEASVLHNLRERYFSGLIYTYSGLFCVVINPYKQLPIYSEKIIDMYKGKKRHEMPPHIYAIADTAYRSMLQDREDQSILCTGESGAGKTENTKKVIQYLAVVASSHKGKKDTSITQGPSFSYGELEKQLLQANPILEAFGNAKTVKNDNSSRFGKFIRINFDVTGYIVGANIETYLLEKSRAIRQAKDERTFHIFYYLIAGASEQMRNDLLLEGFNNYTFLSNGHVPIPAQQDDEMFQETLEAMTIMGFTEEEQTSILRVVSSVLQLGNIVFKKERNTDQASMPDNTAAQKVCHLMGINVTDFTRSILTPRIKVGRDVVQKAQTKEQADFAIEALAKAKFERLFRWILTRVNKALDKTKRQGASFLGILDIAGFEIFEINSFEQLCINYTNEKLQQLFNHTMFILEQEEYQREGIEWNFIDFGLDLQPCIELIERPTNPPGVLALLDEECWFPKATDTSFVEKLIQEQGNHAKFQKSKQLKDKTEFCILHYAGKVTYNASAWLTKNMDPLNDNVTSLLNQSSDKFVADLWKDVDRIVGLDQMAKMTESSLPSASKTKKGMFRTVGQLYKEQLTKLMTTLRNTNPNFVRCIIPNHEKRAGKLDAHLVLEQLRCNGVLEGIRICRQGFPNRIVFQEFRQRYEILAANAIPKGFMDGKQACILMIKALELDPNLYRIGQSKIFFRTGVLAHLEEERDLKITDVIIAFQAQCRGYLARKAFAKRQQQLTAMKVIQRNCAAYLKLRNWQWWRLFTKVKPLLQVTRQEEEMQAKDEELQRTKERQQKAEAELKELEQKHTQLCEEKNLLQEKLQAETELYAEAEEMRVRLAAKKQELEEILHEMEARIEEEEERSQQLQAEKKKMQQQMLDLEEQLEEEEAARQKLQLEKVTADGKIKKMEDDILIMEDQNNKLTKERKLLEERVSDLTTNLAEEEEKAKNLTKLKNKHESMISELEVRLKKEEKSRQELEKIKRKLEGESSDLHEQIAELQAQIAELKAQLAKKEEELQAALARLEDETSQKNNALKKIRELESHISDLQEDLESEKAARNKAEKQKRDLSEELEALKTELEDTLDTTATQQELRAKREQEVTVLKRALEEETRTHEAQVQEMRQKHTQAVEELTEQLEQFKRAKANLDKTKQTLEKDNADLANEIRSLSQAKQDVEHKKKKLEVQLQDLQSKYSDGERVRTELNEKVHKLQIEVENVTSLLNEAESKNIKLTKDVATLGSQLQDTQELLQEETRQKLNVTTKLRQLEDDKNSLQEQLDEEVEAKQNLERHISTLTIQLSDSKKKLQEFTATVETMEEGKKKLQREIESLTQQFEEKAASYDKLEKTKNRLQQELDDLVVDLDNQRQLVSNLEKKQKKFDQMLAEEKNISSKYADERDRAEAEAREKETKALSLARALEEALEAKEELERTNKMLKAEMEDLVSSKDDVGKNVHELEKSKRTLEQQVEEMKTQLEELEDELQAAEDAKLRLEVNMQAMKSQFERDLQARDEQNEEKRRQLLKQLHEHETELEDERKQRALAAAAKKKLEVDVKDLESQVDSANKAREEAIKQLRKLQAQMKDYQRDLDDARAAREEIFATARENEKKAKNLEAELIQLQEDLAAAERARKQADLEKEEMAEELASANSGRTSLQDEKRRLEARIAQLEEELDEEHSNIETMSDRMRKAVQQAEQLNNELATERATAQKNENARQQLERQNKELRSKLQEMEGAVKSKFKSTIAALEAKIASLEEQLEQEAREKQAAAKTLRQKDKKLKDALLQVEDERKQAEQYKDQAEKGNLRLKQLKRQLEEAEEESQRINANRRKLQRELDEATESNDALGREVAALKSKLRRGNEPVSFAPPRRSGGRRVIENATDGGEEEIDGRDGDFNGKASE
T1 sequence (P02612 whole entry partner): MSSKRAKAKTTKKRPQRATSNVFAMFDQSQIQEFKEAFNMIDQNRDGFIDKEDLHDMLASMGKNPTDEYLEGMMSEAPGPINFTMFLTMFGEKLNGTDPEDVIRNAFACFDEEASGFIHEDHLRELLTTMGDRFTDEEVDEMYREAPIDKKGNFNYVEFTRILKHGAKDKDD
T1 sequence (P02607 whole entry partner): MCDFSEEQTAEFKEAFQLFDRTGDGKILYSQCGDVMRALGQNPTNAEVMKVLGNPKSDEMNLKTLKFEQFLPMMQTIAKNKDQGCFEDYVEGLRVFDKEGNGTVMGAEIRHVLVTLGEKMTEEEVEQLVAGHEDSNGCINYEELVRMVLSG

Molecule | binding to myosin (myosin) | recognised by digoxigenin-labelled M21 subunit in Far Western blotting (M21 subunit)
M110-(R714-I1004): C-terminal 291 residues of the chicken gizzard M110 subunit (protein) RSTRTREQENEEKEKEEKEKQDKEKQEEKKESETKDDDYRQRYSRTVEEPYHRYRPTSTSTSTSSTSSLSTSTSSLSSSSQLNRPNSLIGITSAYSRSGTKESEREGGKKEEEKEEDKSQPKSIRERRRPREKRRSTGVSFWTQDSDENEQEHQSDSEEGTNKKETQSDSLSRYDTGSLSVSSGDRYDSAQGRSGSQSYLEDRKPYCSRLEKEDSTDFKKLYEQILAENEKLKAQLHDTNMELTDLKLQLEKTTQRQERFADRSLLEMEKRVSGKSQYLLGGKKSSRKKDI | bound to myosin | recognised
M110-(M1-S477): rat aorta M110 fragment, residues 1-477, GST tag removed (protein, UniProt Q10728 1-477, looked up, fragment) MKMADAKQKRNEQLKRWIGSETDLEPPVVKRQKTKVKFDDGAVFLAACSSGDTDEVLKLLHRGADINYANVDGLTALHQACIDDNVDMVKFLVENGANINQPDNEGWIPLHAAASCGYLDIAEFLIGQGAHVGAVNSEGDTPLDIAEEEAMEELLQNEVNRQGVDIEAARKEEERIMLRDARQWLNSGHISDVRHAKSGGTALHVAAAKGYTEVLKLLIQAGYDVNIKDYDGWTPLHAAAHWGKEEACRILVDNLCDMETVNKVGQTAFDVADEDILGYLEELQKKQNLLHSEKRDKKSPLIESTANMENNQPQKTFKNKETLIIEPEKNASRIESLEQEKADEEEEGKKDESSCSSEEDEEDDSESEAETDKTKPMASVTNAHTASTQAAPAAVTTPTLSSNQGTPTSPVKKFPTSTTKISPKEEERKDESPASWRLGLRKTGSYGALAEITASKEAQKEKDTAGVIRSASSPRLS | did not bind to myosin | not
M110-(K933-I1004): C-terminal 72 residues of the chicken gizzard M110 subunit (protein, UniProt Q90623 933-1004, looked up, fragment) KLYEQILAENEKLKAQLHDTNMELTDLKLQLEKTTQRQERFADRSLLEMEKRVSGKSQYLLGGKKSSRKKDI | did not bind to myosin | recognised

More lines, main results first:

binding to myosin (myosin) | Molecule | recognised by digoxigenin-labelled M21 subunit in Far Western blotting (M21 subunit)
bound to myosin | GST-M21: GST fusion of the chicken gizzard M21 subunit (M1-K186) (protein, left off: a dimerising Fc or GST; small tags and cut ends) MSSLFTRSKEYTRSRKSQSDSPPSSPSPIAKTLRHERLSRLEAATTPATSDSYSDRASSRSSAYSRRENRLAALSSRAEEESNRDYKKLYESALSENQKLKSKLQEAQLELADIKSKLEKAAQQKHEKTSDRSSMLEMEKREKRALERKLSEMEEEMKILTELKSDNQRLKDENGALIRVISKLSK | 
bound quantitatively to myosin | complex between GST-M21 and M110-(R714-I1004): complex purified on glutathione-Sepharose from GST-M21 mixed with bacterial extract expressing M110-(R714-I1004) (protein, left off: a dimerising Fc or GST; small tags and cut ends) GST-M21 (M21 part): MSSLFTRSKEYTRSRKSQSDSPPSSPSPIAKTLRHERLSRLEAATTPATSDSYSDRASSRSSAYSRRENRLAALSSRAEEESNRDYKKLYESALSENQKLKSKLQEAQLELADIKSKLEKAAQQKHEKTSDRSSMLEMEKREKRALERKLSEMEEEMKILTELKSDNQRLKDENGALIRVISKLSK M110-(R714-I1004): RSTRTREQENEEKEKEEKEKQDKEKQEEKKESETKDDDYRQRYSRTVEEPYHRYRPTSTSTSTSSTSSLSTSTSSLSSSSQLNRPNSLIGITSAYSRSGTKESEREGGKKEEEKEEDKSQPKSIRERRRPREKRRSTGVSFWTQDSDENEQEHQSDSEEGTNKKETQSDSLSRYDTGSLSVSSGDRYDSAQGRSGSQSYLEDRKPYCSRLEKEDSTDFKKLYEQILAENEKLKAQLHDTNMELTDLKLQLEKTTQRQERFADRSLLEMEKRVSGKSQYLLGGKKSSRKKDI | 
bound to myosin | GST-M110-(M377-K976): GST fusion of the C-terminal 600 residues of the M110 subunit from rat aorta (protein, left off: a dimerising Fc or GST, GST fusion of the C-terminal 600 residues of the M110 subunit from rat aorta) MASVTNAHTASTQAAPAAVTTPTLSSNQGTPTSPVKKFPTSTTKISPKEEERKDESPASWRLGLRKTGSYGALAEITASKEAQKEKDTAGVIRSASSPRLSSSLDNKEKEKDNKGTRLAYVAPTIPRRLGSTSDIEEKENRESSNLRTSSSYTRRKWEDDLKKNSSINEGSTYHRSTSNRLWAEDSTEKEKDSAPTAATILVAPTVVSAAASSTTALTTTTAGTLSSTSEVRERRRSYLTPVRDEESESQRKARSRQARQSRRSTQGVTLTDLQEAEKTIGRSRSTRTREQENEEKDKEEKEKQDKEKQEEKKESEVSREDEYKQKYSRTYDETYARYRPVSTSSSSTPSSSSLSTLGSSLYASSQLNRPNSLVGITSAYSRGLTKDNEREGEKKEEEKEGEDKSQPKSIRERRRPREKRRSTGVSFWTQDSDENEQERQSDTEDGSSKRDTQTDSVSRYDSSSTSSSDRYDSLLGRSASYSYLEERKPYGSRLEKDDSTDFKKLYEQILAENEKLKAQLHDTNMELTDLKLQLEKATQRQERFADRSLLEMEKRERRALERRISEMEEELKMLPDLKADNQRLKDENGALIRVISKLSK | 

— patent publication US6884600B1, “Protein phosphatase-1 catalytic subunit interactions” (Medical Research Council London, priority 1996, dated 2005)
